Test results reported in US20190169637A1.
One block for each substance: values may come before it.

Key:
CD19 = CD19 (UniProt P15391); experiment: cell-based or functional assay
[1] = system: Sleeping Beauty transposase SB100X (hyperactive) (synthetic construct (reconstructed Tc1-like fish transposon)); experiment: cell_activity; settings: day 14, CD8+ T cells, n=7

Chain of UniProt P15391 (P15391 20-556 limits assumed): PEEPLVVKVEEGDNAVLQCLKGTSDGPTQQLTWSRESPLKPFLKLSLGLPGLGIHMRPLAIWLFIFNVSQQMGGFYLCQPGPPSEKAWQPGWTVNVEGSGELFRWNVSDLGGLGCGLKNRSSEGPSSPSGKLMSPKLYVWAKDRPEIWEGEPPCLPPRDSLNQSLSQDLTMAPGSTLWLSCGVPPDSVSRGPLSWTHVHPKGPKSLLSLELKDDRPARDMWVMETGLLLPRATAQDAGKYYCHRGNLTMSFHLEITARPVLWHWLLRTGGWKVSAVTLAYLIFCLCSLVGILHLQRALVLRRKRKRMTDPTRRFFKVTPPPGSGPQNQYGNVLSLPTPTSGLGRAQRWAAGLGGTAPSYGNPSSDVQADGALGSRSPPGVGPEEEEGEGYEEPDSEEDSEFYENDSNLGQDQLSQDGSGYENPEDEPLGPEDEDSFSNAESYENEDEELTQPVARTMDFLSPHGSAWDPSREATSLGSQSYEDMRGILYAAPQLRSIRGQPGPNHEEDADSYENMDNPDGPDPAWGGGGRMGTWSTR

proliferation by CFSE dilution (cell divisions in 72 hours) (CD19): > 3
Substance: CD19-CAR (FMC63 targeting domain, IgG4-Fc Hinge spacer, CD3zeta and 4-1BB costimulation) (from UniProt P01861 99-110; Q07011 214-255; P20963 52-163)

Substance: CD19-CAR_EGFRt transposon in pT2/HB minicircle
activity (% EGFRt+ cells) ([1]; SB100X from minicircle): 49.8

Substance: CD19-CAR_EGFRt transposon in pT2/HB plasmid
activity (% EGFRt+ cells) ([1]; SB100X from plasmid): 12.8
